Source: paper PMC10801496

Experiments:
[1] = biological target: human CD47 with His tag (human) (UniProt Q08722); assay: ELISA; competition with SIRPa-Fc
[2] = biological target: CD47 (Homo sapiens) (UniProt Q08722); settings: cited from earlier work
Sequence of CD47 (Homo sapiens) (Q08722 19-323): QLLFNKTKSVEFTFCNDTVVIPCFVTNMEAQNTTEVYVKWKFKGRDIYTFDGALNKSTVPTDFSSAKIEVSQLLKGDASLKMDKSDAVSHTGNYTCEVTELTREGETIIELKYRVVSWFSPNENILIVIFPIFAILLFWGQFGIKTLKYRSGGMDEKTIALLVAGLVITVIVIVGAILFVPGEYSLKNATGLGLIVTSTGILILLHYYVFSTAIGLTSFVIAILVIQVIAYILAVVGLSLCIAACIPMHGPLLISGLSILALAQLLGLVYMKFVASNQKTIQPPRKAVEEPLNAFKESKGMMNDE

Sequence of human CD47 with His tag (human) (Q08722 19-323): as above
Sequence of SIRPα (P97797 32-373): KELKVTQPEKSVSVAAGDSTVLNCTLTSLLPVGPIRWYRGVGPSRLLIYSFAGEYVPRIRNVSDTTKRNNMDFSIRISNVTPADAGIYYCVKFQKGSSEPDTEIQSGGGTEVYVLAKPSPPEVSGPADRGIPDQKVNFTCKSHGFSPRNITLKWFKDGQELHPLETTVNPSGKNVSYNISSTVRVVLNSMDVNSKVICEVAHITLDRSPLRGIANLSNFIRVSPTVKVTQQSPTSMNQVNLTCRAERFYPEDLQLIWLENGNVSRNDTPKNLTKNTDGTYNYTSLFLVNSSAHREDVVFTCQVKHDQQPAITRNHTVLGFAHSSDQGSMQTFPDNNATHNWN

Substance B6H12.2 has an IC50 [1] of 233 nM.

For SIRPα (from UniProt P97797), the Kd [2] is given as 300 nM.
